This is an account of results in the DeepSol protein solubility set.

The nature of this data set: soluble on expression in E. coli; label from the status in PepcDB or PDB records.
As to “MKSKFFAQNRERLVNTLPDESITILFAGQAPHMSADAHYKFVPNRNFYYVTGIDEPNVIFMLKKFGNSVEETLFIEKSDPVMEKWVGKTVSNEEAEKISGIKKVIYLDSFEKTMSNIFFTENVKHLYLDLECREWKGTETKTLAFAKHVREQYPHVTIGNVYPNICELRVFKTDEEIEIIKEAIAVTKDGIYNVLKHAKADMMEYELEAQFDFTLKSSGIKHHAFNTILASGKNATVLHYEDNDAQIQNGDLVLLDLGAQKDYYNADISYTFPANGTFSSRQKQIYNIVLNALKETTEIIKPGLKFAALNEHAKKVLAEGCKAVGLIQEDEELSKYYYHGVSHFLGLDTHDVGTYKDRVLEEGMVITIEPGLYIEEESIGIRIEDDILVTKDGHENLSKDIIREVEEIEEFMRENNVNVKQDEVVTK”, the “soluble on expression in E. coli” value is recorded as “soluble”. “MILKALPNESMPREKLLQRGPQALTDAELLAIFLRTGTQGMNVIELADFLIQDFGSLRQLFSASEQEFCQHKGLGQAKYVQLQAVLEMTQRYLAETLKRGDALTSPEQTKLYLSSILRDRQREAFYILFLDNQHRVIKDEILFEGTLDAASVYPREVVKRALHHNAAALILAHNHPSGVAEPSQADRRITRRLIDALALVDIRILDHFVIGDGESVSFAERGWI”: the “soluble on expression in E. coli” value is “not soluble”. Regarding “MGSDKIHHHHHHMTEITTLSQFLTTANTQFQVYDLGRRVQHIDALAFHQIESLLAPYPYPIQGHAQLGLVFWQQSAQPYIWFLKLPLDEQGLLSPAPRSQFIQMILDALGRDLTQELTEAQQEQFANHPFSFKPNQHKLALFNALVRQQLGQPASSQYEFAAQYLSEQAVIGESSAVENESHSWEQLGLQGIADVCVRAQSLDNMDSLIRSFDFSPLPVHAALCQCLEHLPLEPSLAEKIYLLFEQASNEHKASYLAALASSPSLSIKAIAHLAQHNLLDANHLVTIAARNWQALKDDSCRKSYLEALALQEQGFFNQVFADIVAIPSLRQALLLDLRNPERSNILSIAIGGLFKAAQS”, the “soluble on expression in E. coli” value is “not soluble”.

“MGSDKIHHHHHHMATVTTSEGSAERREADSGALARGLNILSRLHEAARPLSLQDIAESVGLPTTTCHRLLQSLDVAGYVYREGSLYCPTPRAACPLPLEHPLNRLRRDTAPLMRELQERHGPSVLLIAFLGDHRVTVECVAGNYSVTPYFDTTVTAPLHASVSGKILLSDRTDEQRDALLGQAPYSARTEWTIRDRAALYAELEEVRKRGWATNQNENVIGICAVGSRLAAPSGRALGAIVLTGPSRFFAKGFDTMRDDLLQACQMLNSTSHAIRTMTQLLGV”: the “soluble on expression in E. coli” value is on record as “not soluble”. In the case of “MKLFHTADWHLGKLVHGVYMTEDQKIVLDQFVQAVEEEKPDAVIIAGDLYDRAIPPTEAVDLLNDVLQKIVIDLQTPVIAVAGNHDSPDRIHFGSSLMKKQGLHIVGQFQFPYEPVVLNDEYGEVHFHLIPYADPSIVRHVLKNEDVRSHDDAMRIFMNELSETMDKEARHVFVGHAFVTSSGEAEENTSDAERPLSIGGAEYVNSHYFDKFHYTALGHLHQAHFVRNETIRYSGSPLAYSISEEKHKKGYYIVELNETGEVAIEKRLLSPRRKMRTVEAKIDELLQHPVSEDYVFVKLLDENPVLQPMEKIRSVYPNAMHVERAMQRRELTDTNEVTVSRHKTDDLSLLKAFYKEMKGLDLSEEKERLFIDVLQTVQEREGERG” it was “not soluble”.

As for “MIISAASDYRAAAQRTLPPFLFHYIDGGAYAEYTLRRNVEDLSQVALRQRVLKNMSDLSLETTLFNETLSMPVALAPVGLCGMYARRGEVQAAAAADAKGIPFTLSTVSVCPIEEVAPTIKRPMWFQLYVLRDRGFMRNALERAKAAGCSTLVFTVDMPTPGARYRDAHSGMSGPNAAMRRYWQAVMHPKWAWDVGLNGRPHDLGNISAYLGKPTGLEDYIGWLANNFDPSISWKDLEWIREFWDGPMVIKGILDPEDARDAVRFGADGIVVSNHGGRQLDGVLSSARALPAIADAVKGDIAILADSGIRNGLDVVRMIALGADTVLLGRAYLYALATAGKAGVANLLDLIEKEMKVAMTLTGAKSISEISGDSLVQELGKSLPAALAPMSKGDAA”, the “soluble on expression in E. coli” value is listed as “not soluble”. For the sequence “MGSSHHHHHHSSGLVPRGSMNNIYPLVICGPSGVGKGTLIKKLLNEFPNYFYFSVSCTTRKKREKEKEGVDYYFIDKTIFEDKLKNEDFLEYDNYANNFYGTLKSEYDKAKEQNKICLFEMNINGVKQLKKSTHIKNALYIFIKPPSTDVLLSRLLTRNTENQEQIQKRMEQLNIELHEANLLNFNLSIINDDLTLTYQQLKNYLLNSYIHLNNHTRN”, the “soluble on expression in E. coli” value is reported as “soluble”. In the case of “MKPSLRIYRYPPPPSQRTPCALTIGNFDGVHLGHQAILARVRQEARARGLVPAVMTFEPHPREYFATLNRRPELAPTRISGLRDKLQALAAAGIEQVAVERFDARLAEMSANAFIEDLLVAGLQTRWLLVGEDFRYGHKRSGDIDLLREAGLAHGFEVCTLADITDRQGHRISSSEVRTALAVGDLDRAAQLLGQPFHISGHVIHGRKLGRELGFPTMNLRVAPRCATRSGIYVVRVLGLQDRPLPAVASLGVRPTVEDRGRVLLEAHLLDESLDAYGKLVRVEFLHKLRDEEKFADLPSLTAAIAQDAQNARAYFAVHGL” it was “not soluble”; in that of “MALSKVKLNDTLNKDQLLSSSKYTIQRSTGDSIDTPNYDVQKHINKLCGMLLITEDANHKFTGLIGMLYAMSRLGREDTIKILRDAGYHVKANGVDVTTHRQDINGKEMKFEVLTLASLTTEIQINIEIESRKSYKKMLKEMGEVAPEYRHDSPDCGMIILCIAALVITKLAAGDRSGLTAVIRRANNVLKNEMKRYKGLLPKDIANSFYEVFEKHPHFIDVFVHFGIAQSSTRGGSRVEGIFAGLFMNAYGAGQVMLRWGVLAKSVKNIMLGHASVQAEMEQVVEVYEYAQKLGGEAGFYHILNNPKASLLSLTQFPHFSSVVLGNAAGLGIMGEYRGTPRNQDLYDAAKAYAEQLKENGVINYSVLDLTAEELEAIKHQLNPKDNDVEL”, “soluble”; in that of “MSLRHLQSTIHPELDHLDDKIIFQRNAARAIVLDGEDVLLLYTERYHDYTLPGGGIDEGEDVIAGLVRELEEETGAQNIHSIKPFGIFEEFRPWYKDDADVMHMISYCYTCKIDRELGETAYEDYEVKNGMRPVWMNVHEAIAHNEKTMAESPKKGMSIERETFLLHLIAKELLEGHHHHHH”, “soluble”. In the case of “MSLKERFSPKMLSDITGVSIRTLHYYHEKGLLVPQQMSANGYRYYNVQDISKLQYILFLKELDLTLKQIQIYFEGDSDFRTKILHDNFYHIVKKRDRLNDIICTLEHHFHQDNEEIEVTTMQNFNLNEQYEKEAASKYGDTHYYQAYKDKQKSKDESEQQNHFEEINKQLNMFFDDMNQLYLNKVSILEASGKIKKLLCILKEQVPNCDNQFLEYIAQIYIEDERFVKFINKQRERGLNLYISDAIKTFIKEGHHHHHH” it was “soluble”. As to “MAHHHHHHMAKERNLDLKALQRSKRTVAHAYDAGVRSVPPALPLDIGGALAQVLTTRVTTCFGLHLIVTAQNEDAEQQSAPSLLMDVAVRAHLERLPLPVLHRLISDLCEVRAAWKRDLLAPSAAAAVQEQALLGRESINALLYHVCLWQRRYPLELLSAVLSFYDEHKHLFSPATSERCSASVQLESLLEEVQCLQYPDLSDVPGLIRCDVFMTYPHMPLGEQRQLMHTIAAAVVHRKAAGGLQRQSSCMGTEEKYVTDNLLRHSRTPPDPRLLLRSFVVDGAAAIPERFCTDMPTQTYHEMRAAFERHKHDGVRRLAAQDYGQAVTELTPPPPPPPPQPAASSVPSS”, the “soluble on expression in E. coli” value was “not soluble”. The value for “MGSDKIHHHHHHMYQEISKLLMYGDLPQDEILYKLGQLFEQFEVGEYNKTELVRDINTQVKRILKVATDYGFDDNLWHNYLTFFLMMSENPFSITCEKVGASDGSVNGLVANDFRIFKKLFDYDFKPIESALGIDCFTQISNYKAIVKKDLMYNHNVSEKVRALSKKLEAAKDEQEFFDVVTGFYKAYGVGMFGLNKAFRIEEHLDGGFSFMPINNMDAVMLDDLIGYEIQKKKLTDNTEAFVQGKKANNVLLFGDSGTGKSTSIKAIVNQYYDDGLRMIEIYKHQFKYLSKIIAAIKNRNYRFIIYMDDLSFEEHEIEYKFLKAVIEGGVETKPDNILIYATSNRRHLIKETWNDRNDQDNSNDKHHSDTVEEKLSLVNRFGVTISYSKPSQKEFFNIVTELARKSGCTLSDEELCREANKWELSHGGISGRTATQFVNYIMANN” was “not soluble”; that for “MTLWDRLSRLVRANLNDLLRRAEDPEKIIEQALLDMKQALREAREQVAEALAEQKRLEREVESHEREAALWEEKAREALKAGREDLAREALRRKKRALDLAEGFKAQLSEHKALTERLMTQLKALEAKIDEAEARKKLLLARKKGVEAAETVRRMESRLDQHPALEAFEEMEARILAMEDRHQALEALDQADLEKEFQALSAEKEVEEDLLRLKRELGQAAAALEHHHHHH” was “not soluble”. As for “QVQLQESGGGLVQAGDSLKLSCEASGDSIGTYVIGWFRQAPGKERIYLATIGRNLVGPSDFYTRYADSVKGRFAVSRDNAKNTVNLQMNSLKPEDTAVYYCAAKTTTWGGNDPNNWNYWGQGTQVTVSS”, the “soluble on expression in E. coli” value was “soluble”. Consider “MDSKSHGWLIGANGTILETHDGGEHWEPRTFDFLRMDEEINYRFESISCYGNEGWIVGKPPILLHTQNGGKDWERIPLSSKLPGEPVLITALGPNRAELATTAGAIYTTDNGGKNWKALVKETIDATLNRTTSSGVTGASYYTGTVISITRDCNGYYLAISSRGNFYVTWHPGQEYWTPHPRDSSRRIQSMGFVQNDIHKGLWMANNGGFLGFSPPNPSLDTVSSIPFQRVDIRTGGYGILDVAFHQQKRNEVWASVGSGILYRSFDGGKHWEKDPWLDHLGSVLYRIKFVENSGFILGAKGTLLRYNG”, for which the “soluble on expression in E. coli” value is listed as “soluble”. Consider “MGSDKIHHHHHHMEIFDYVILGAGLGGLSAAACLTRQGYRVVVLEQHYLPGGCCHTFDYGEYHFCADVHYISQCGSGQTITQFLDYIHQNVPFNSLDSDCIDRVITPEADFKIPLGWENLRSRLLSTFPEEAGAINHYCNEIQQLHQEIRNLVQEVRWYDQKLSDWLKLPKYLNLFWKRNWTLQDLYNHVGLSPKLQAVLAGQSGDYALPPQEIALLTHTSLVWDYSEGAYYPKHHFKHLVDTIADVITAGGGVIKYSTPVSHIQVSNHSVHSVLADGNSYRASKAYISDLDPKLTVELMHDITALSQKEYKRLTNYQYSASAFNIYLGLDSRFDPQRYGIGNWNVWYYPTGDLNREYQQQLEGDFSQPWIFLSCPTMKSSEPGMGPEGHHVLEIATVCSYEPFEHLYKSNPKAYKAKKREFYQQIMTSVRDLIPDVDKYARMKVYGTPTTSEFYLGQPQGNIYGAKLVPKQVGLNRLGYMTELPNLFLVGASAGYPSVPGVIGNGMQVVELLTGQSVWHKAAERPQSLVAIG”, for which the “soluble on expression in E. coli” value is “not soluble”. With “MAERTHFMELALVEARSAGERDEVPIGAVLVLDGRVIARSGNRTRELNDVTAHAEIAVIRMACEALGQERLPGADLYVTLEPCTMCAAAISFARIRRLYYGAQDPKGGAVESGVRFFSQPTCHHAPDVYSGLAESESAEILRQF”, the “soluble on expression in E. coli” value is reported as “soluble”.

Regarding “MDGDFRTSFVREPAGLRPYPALVLNADYRPLSYYPLSLWPWQEAIKAAFLDRVSIVAEYDQVVRSQRAALRIPSVVVLKEFVSPQKRVAFTRFNLFLRDEFRCQYCGAKGDLTFDHVVPRARGGVTSWQNVVAACSPCNLHKGSKTLKQAGMRLARIPREPTPAEMQRHGQRFPPNHLHDSWLDYLYWDAELEALEHHHHHH”, the “soluble on expression in E. coli” value is reported as “not soluble”. “SDCLIVVDTRAAIRRVNRAALTMLGYDEEQLLGMPVGVIFAWERDKERLRTEGLRCFVESIGSSPAEFTFLSSDERRTPVLLSASPMLGRD”: the “soluble on expression in E. coli” value is “not soluble”.
